The text below walks through data of paper PMC3062594, “Intermolecular masking of the HIV-1 Rev NLS by the cellular protein HIC: Novel insights into the regulation of Rev nuclear import” (Retrovirology, 2011).

This experiment concerns the target T1, recombinant 6×His-HIC (Human I-mfa domain-Containing protein) (human, UniProt Q9P1T7-2 1-246).
T1 construct: also called 6xHis-HIC; 6ΧHis HIC; source: recombinant, purified; produced as described previously [25]; not shown: 6xHis, N-terminal, kept
T1 sequence (looked up): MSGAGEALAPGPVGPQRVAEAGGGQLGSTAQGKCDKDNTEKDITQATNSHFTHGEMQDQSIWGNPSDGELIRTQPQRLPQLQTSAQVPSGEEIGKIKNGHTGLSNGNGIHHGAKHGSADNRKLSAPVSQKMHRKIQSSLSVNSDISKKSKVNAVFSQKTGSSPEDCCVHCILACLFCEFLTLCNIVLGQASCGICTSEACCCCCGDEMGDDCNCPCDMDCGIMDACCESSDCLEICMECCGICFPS
Description: pull-down. As to conditions: both partners purified.

B1: GST-YFP-RevNLS (aa35-46) (domain or fragment)
chain: RQARRNRRRRWR
notes: source: recombinant GST fusion protein, purified; produced as described previously; not shown: GST, N-terminal, kept; YFP, N-terminal, kept
Regarding B1, the binding result is recorded as “binds”.
